{"source": "patent US20140248710", "about": "“THREE-COMPONENT BIOSENSORS FOR DETECTING MACROMOLECULES AND OTHER ANALYTES” (Mediomics LLC, published 2014)", "key": {"[1]": {"biological_target": "T1, Thrombin (UniProt P00734;P00734 P00734:328-363,P00734:364-622)", "assay": "fluorescence intensity titration; 50 mM Tris pH 7.5, 100 mM NaCl, 5 mM KCl, 1 mM MgCl2"}, "[2]": {"biological_target": "T1, Thrombin", "assay": "EMSA; high affinity; among most efficient competitors (FIG. 16)"}, "[3]": {"biological_target": "T1, Thrombin", "assay": "FP; nanomolar range only"}, "[4]": {"biological_target": "Single-stranded DNA binding protein (SSB) (Escherichia coli, UniProt P0AGE0 P0AGE0:2-178)", "sequence (P0AGE0 2-178, one chain of several)": "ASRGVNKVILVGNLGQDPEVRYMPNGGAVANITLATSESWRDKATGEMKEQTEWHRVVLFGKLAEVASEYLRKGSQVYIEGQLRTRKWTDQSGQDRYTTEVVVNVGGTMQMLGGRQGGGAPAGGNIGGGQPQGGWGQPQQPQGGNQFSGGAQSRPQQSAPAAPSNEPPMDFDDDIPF", "assay": "FP; nanomolar concentrations, similar range as thrombin", "conditions": "tags: Sigma; chain copies: 4; label: 5' fluorescein"}, "[5]": {"biological_target": "T1, Thrombin", "assay": "competition; affinity relative to THR2"}, "[6]": {"biological_target": "T1, Thrombin", "assay": "competition; does not compete with THR2 (binds the other exosite); poor competitor of beacon complex compared with bivalent constructs"}}}
{"binder": "GGTTGGTGTGGTTGG (ssDNA)", "note": "[THR2 (G15D)]", "values": [{"measurement": "Kd", "setting": "[1]", "result": 6.3, "unit": "nM"}]}
{"binder": "THR16/THR17 bivalent (structured_DNA) DNA 1: GGTTGGTGTGGTTGGTTTTTTTTTTTTTTTTTCTGTCGTTAGTGAAGGTT DNA 2: AACCTTCACTAACGACAGTTTTTTTTTTTTTTTTTAGTCCGTGGTAGGGCAGGTTGGGGTGACT", "values": [{"measurement": "binding result", "setting": "[2]", "result": "binds"}]}
{"binder": "THR18/THR19 bivalent (structured_DNA) DNA 1: GGTTGGTGTGGTTGGTTTTTTTTTTTTTTTTTTTTTTTTTTTCTGTCGTTAGTGAAGGTT DNA 2: AACCTTCACTAACGACAGTTTTTTTTTTTTTTTTTTTTTTTTTTTAGTCCGTGGTAGGGCAGGTTGGGGTGACT", "values": [{"measurement": "binding result", "setting": "[2]", "result": "binds"}]}
{"binder": "AGTCCGTGGTAGGGCAGGTTGGGGTGACT (ssDNA)", "note": "[THR1 (60-18 [29])]", "values": [{"measurement": "binding result", "setting": "[3]", "result": "binds"}, {"measurement": "binding result", "setting": "[4]", "result": "binds"}]}
{"binder": "GGTTGGTGTGGTTGG (ssDNA)", "note": "[THR4 (G15D)]", "values": [{"measurement": "binding signal", "setting": "[5]", "result": 1.7, "unit": "fold"}]}
{"binder": "AGTCCGTGGTAGGGCAGGTTGGGGTGACT (ssDNA)", "note": "[THR3 (60-18 [29])]", "values": [{"measurement": "binding result", "setting": "[6]", "result": "binds"}]}
